The values below come from US20160264684A1, “GLYCAN-INTERACTING COMPOUNDS AND METHODS OF USE” (SIAMAB THERAPEUTICS, INC., priority 2013, published 2016).

What all share (assay type): binding
The nature of one test: AcSTn-PAA ELISA. The settings on record: 200 ng/well PAA antigen; 1:5 dilutions from 1 μM. The procedure:
(§1) Anti-STn serum titer is determined using a murine anti-STn bovine submaxillary mucin (BSM) ELISA together with serum profiles observed by glycan microarray. 96-well plates are coated with 1 μg/well of BSM and incubated overnight at 4° C. O-acetylation of BSM antigen is removed by treating wells with 0.1 M sodium hydroxide. Specific binding to STn is determined by treatment of wells with sodium periodate. Periodate treatment destroys the C6 side chain of sialic acid; therefore antibodies raised against STn should not bind to periodate-treated wells. Wells are blocked with PBS 1% ovalbumin (OVA). Serum samples to be assayed are serially diluted in PBS 1% OVA. […] Detection of anti-STn antibodies present in serum is determined using an HRP-conjugated polyclonal goat anti-mouse IgG antibody (Jackson Immunoresearch, West Grove, Pa.). […] Optical densities are measured at 490 nm using a Spectramax microplate reader (Molecular Devices, Sunnyvale, Calif.). The serum titer is obtained by comparison of OD values with a cutoff value calculated as two standard deviations above the mean of optical density values of the negative control. […]
(§2) 18D2 and 18C7 antibodies were further characterized by ELISA comprising antigens other than BSM. […] Binding of anti-STn antibodies was detected using a goat anti-mouse IgG-HRP conjugated antibody (Jackson Immunoresearch Laboratories, West Grove, Pa.). […]
(In general: In an ELISA, binding on a coated surface is turned into a signal by an enzyme label.)

A short description of test [1]: Glycan microarray analysis, Tn antigen or other glycans. As for the experimental part: (§3) Optimized glycan arrays comprise 71 chemically synthesized and well-defined glycans, most of which comprise Neu5Ac and Neu5Gc glycan pairs.
(§4) 300 ml of epoxy blocking buffer is prepared by combining 15 ml of 2 M Tris buffer (pH 8) with 0.9 ml of 16.6 M ethanolamine and 284.1 ml of distilled water. The solution is filtered using a 0.2 μM nitrocellulose membrane. The epoxy buffer solution as well as 1 L of distilled water are pre-warmed to 50° C. Glass slides are arranged in a slide holder and quickly submerged in a staining tub with the warmed epoxy blocking buffer. Slides are incubated in the epoxy blocking buffer for 1 hour at 50° C. with periodic shaking to deactivate epoxy binding sites. Next, slides are rinsed and blocked with PBS with 1% OVA at 25° C. for one hour. Serum samples are diluted 1:1000 in PBS with 1% OVA and added to the glycan array for one hour at 25° C. After extensive washing, binding of polyclonal serum antibodies are detected by incubating glycan microarray slides with Cy3-conjugated anti-mouse IgG (Jackson Immunoresearch, West Grove, Pa.) for one hour. […]
(§5) 18D2 and 18C7 clones were expanded and binding properties of these hybridomas were determined by glycan microarray analysis according to Example 4. […] No binding to Tn antigen or other glycans was detected.

The nature of test [2]: Glycan microarray analysis, 9-O-acetylated GcSTn. As for the experimental part: as §3, §4, §5
A further test can be described thus: GcSTn-PAA ELISA. The conditions noted are these: 200 ng/well PAA antigen; 1:5 dilutions from 1 μM. The procedure: as §1, §2
The test system of test [3] is STn on bovine submaxillary mucin (BSM). The test is described as follows: Anti-STn BSM ELISA. As for the experimental part: Anti-STn serum titer is determined using a murine anti-STn bovine submaxillary mucin (BSM) ELISA together with serum profiles observed by glycan microarray. 96-well plates are coated with 1 μg/well of BSM and incubated overnight at 4° C. O-acetylation of BSM antigen is removed by treating wells with 0.1 M sodium hydroxide. Specific binding to STn is determined by treatment of wells with sodium periodate. Periodate treatment destroys the C6 side chain of sialic acid; therefore antibodies raised against STn should not bind to periodate-treated wells. Wells are blocked with PBS 1% ovalbumin (OVA). Serum samples to be assayed are serially diluted in PBS 1% OVA. A commercially available mouse anti-STn monoclonal antibody, 3F1 (SBH Sciences, Natick, Mass.) is used as a positive control. This antibody is also serially diluted in PBS with 1% OVA. A pool of serum from naïve wild type mice is used for the preparation of negative control samples. Detection of anti-STn antibodies present in serum is determined using an HRP-conjugated polyclonal goat anti-mouse IgG antibody (Jackson Immunoresearch, West Grove, Pa.). The reaction is stopped by addition of sulfuric acid (1.6 M). Optical densities are measured at 490 nm using a Spectramax microplate reader (Molecular Devices, Sunnyvale, Calif.). The serum titer is obtained by comparison of OD values with a cutoff value calculated as two standard deviations above the mean of optical density values of the negative control. […]
Binding affinities of 18D2 and 18C7 to STn were compared to commercially available anti-STn antibodies using the BSM ELISA assay described in Example 2. […] Antibody binding was determined using HRP-conjugated polyclonal goat anti-mouse IgG antibody (Jackson Immunoresearch Laboratories, West Grove, Pa.). […] Optical densities were measured at 490 nm using a Spectramax microplate reader. […] The half maximal effective concentration (EC50) for each antibody was calculated using a non-linear regression analysis carried out on periodate subtracted data.

A short description of test [4]: Glycan microarray analysis, GcSTn. As for the experimental part:
as §3, §4, §5

B1: 18D2: anti-STn monoclonal antibody from mouse #4436; IgG2b κ; heavy chain SEQ ID NO 1, light chains SEQ ID NO 2 and 3 (antibody, V domains shown)
VH: QVTLKESGPGILQPSQTLSLTCSFSGFSLSTSNMGIGWIRQPSGKGLEWLAHIWWHDDKYYNPSLKSRLTISKDISNNQVFLKITSVDTADTATYYCAQVPFYYGTSFDVWGTGTTVTVSS
VL 1: DIVMTQSPATLSVTPGDRVSLSCRASQSISDYLHWYQQKSHESPRLLIKYASQSISGIPSRFSGSGSGSDFTLSINSVEPEDVGVYYCQNGHSFPLTFGAGTKLELK
VL 2: QIVLTQSPAIMSASPGETVTMTCSASSSITYMHWYQQKPGTSPKRWIYDTSKLASGVPARFSGSGSGTSYSLTISSMEAEDAATYYCHQRSSYTFGGGTKLEIKR
In the case of B1, the concentration giving a half-maximal response (EC50) (in general, the concentration at which the effect is half-maximal) in the test “AcSTn-PAA ELISA” worked out at 1.71 nM; in the test “GcSTn-PAA ELISA”, 1.57 nM; in test [3] (non-linear regression on periodate subtracted data, 7-point 1:5 dilution from 100 nM), 6.3 nM. The “binding to Tn antigen or other glycans” value in test [1] was “No binding”. The “mean fluorescence intensity, Neu5,9Ac5Gc-α2,6-GalNAc” value in test [2] is on record as “about 4,000”. For the same molecule, the “binding to periodate-treated wells” value in test [3] (BSM ELISA, sodium periodate treated wells) was “did not bind”. In test [4], the “Glycan Array GcSTn” value is reported as 50%. For the same molecule, the “mean fluorescence intensity, GcSTn” value in test [4] (glycan microarray) is recorded as “about 7,000”.
